In patent publication US7960513B2, “Antibody against a human ADAM protease” (Monash University, priority 2004, dated 2011):
Entries after “also recorded” stand apart in the source; their conditions may differ.

Columns and labels:
[1] = target: T1, EphA3/ephrin-A5 complex (Homo sapiens, UniProt P29320+P52803); experiment: In vitro binding (Protein-A pull-down) assay
T1 construct: incubated with Fc-tagged ectodomains of Eph-A3, EphB2, EphB4 and ephrin-A2, ephrin-A5, ephrin-B2 (R&D systems)
T1 sequence (P29320 21-541 limits assumed): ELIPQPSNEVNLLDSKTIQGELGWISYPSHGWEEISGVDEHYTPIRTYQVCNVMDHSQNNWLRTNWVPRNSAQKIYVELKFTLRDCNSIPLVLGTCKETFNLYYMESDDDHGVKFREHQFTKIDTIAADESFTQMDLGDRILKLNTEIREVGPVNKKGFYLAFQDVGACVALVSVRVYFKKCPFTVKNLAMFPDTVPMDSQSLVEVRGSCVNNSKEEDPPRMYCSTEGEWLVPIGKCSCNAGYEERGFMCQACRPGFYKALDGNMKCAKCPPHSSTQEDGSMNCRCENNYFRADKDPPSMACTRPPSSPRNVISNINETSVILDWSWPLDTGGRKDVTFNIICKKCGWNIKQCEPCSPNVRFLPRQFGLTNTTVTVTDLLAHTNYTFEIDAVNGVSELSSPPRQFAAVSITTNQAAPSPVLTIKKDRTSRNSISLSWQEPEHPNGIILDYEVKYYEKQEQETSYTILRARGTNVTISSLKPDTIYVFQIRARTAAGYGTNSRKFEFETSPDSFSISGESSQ
T1 sequence (P52803 21-203 limits assumed): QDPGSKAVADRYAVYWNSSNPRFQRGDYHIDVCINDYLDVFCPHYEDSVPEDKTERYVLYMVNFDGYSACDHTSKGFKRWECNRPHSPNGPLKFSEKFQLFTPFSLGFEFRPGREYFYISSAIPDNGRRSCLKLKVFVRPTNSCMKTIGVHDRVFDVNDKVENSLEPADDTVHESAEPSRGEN
Procedure: (§1) Pull-down experiments were done as follows: ADAM10D+C, ADAM17D+C w.t. or the alanine mutants (˜15 μg) were incubated with Fc-tagged ectodomains of Eph-A3, EphB2, EphB4 and ephrin-A2, ephrin-A5, ephrin-B2 (R&D systems) at 4° C. for 30 min in 500 μL of binding buffer containing 10 mM HEPES (pH 7.4), 150 mM NaCl and 0.05% of Triton X-100. To test binding to the preformed EphA3/ephrin-A5 complex, 5 μg of the untagged ephrin-A5 was incubated with Fc tagged EphA3 for 30 min at 4° C. followed by the addition of ADAM10. The proteins were incubated for an additional 30 min., when Protein-A-Sepharose (Amersham) beads were added to the reaction mixture and shaken at 4° C. for 2h. The beads were then harvested by centrifugation, washed once with 500 μl of binding buffer and the bound proteins were separated on a 10-20% gradient polyacrylamide gel. The binding of the individual ADAM domains was carried out likewise using 15 μg of the disintegrin and 8 μg of the cysteine-rich domain.

[2] = target: T2, EphB4/ephrin-B2 complex (Homo sapiens, UniProt P52799+P54760); experiment: In vitro binding (Protein-A pull-down) assay; settings: Protein-A capture
T2 construct: incubated with Fc-tagged ectodomains of Eph-A3, EphB2, EphB4 and ephrin-A2, ephrin-A5, ephrin-B2 (R&D systems); purchased R&D systems
T2 sequence (P52799 28-229 limits assumed): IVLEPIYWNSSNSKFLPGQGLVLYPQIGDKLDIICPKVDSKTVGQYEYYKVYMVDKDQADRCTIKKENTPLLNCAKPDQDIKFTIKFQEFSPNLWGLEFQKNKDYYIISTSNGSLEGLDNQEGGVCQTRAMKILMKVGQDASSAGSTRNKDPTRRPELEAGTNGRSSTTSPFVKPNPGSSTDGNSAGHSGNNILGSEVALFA
T2 sequence (P54760 16-539 limits assumed): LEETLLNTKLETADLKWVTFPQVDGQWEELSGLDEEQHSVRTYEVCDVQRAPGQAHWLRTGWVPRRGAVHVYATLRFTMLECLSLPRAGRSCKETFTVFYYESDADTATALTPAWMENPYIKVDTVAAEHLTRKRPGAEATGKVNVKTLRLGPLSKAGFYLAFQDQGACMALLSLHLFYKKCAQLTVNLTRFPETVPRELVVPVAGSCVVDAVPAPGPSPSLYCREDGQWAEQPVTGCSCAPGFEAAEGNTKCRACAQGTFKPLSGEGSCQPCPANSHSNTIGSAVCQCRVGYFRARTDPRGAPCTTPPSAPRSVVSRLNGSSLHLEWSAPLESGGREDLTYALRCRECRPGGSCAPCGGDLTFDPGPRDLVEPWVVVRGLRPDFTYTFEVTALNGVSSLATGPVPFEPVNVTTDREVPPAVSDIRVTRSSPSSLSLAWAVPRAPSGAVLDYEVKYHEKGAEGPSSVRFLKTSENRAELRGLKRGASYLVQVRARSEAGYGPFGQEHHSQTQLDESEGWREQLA
Procedure: as §1

[3] = target: T3, ectodomain of EphA3 (Homo sapiens, UniProt P29320); experiment: In vitro binding (Protein-A pull-down) assay; settings: EphA3-Fc alone, without ephrin
T3 construct: incubated with Fc-tagged ectodomains of Eph-A3, EphB2, EphB4 and ephrin-A2, ephrin-A5, ephrin-B2 (R&D systems); purchased R&D systems
T3 sequence (P29320 21-541 limits assumed): T1 sequence (P29320 21-541 limits assumed)
Procedure: as §1

[4] = target: T4, ephrin-A2 (Homo sapiens, UniProt O43921); experiment: In vitro binding (Protein-A pull-down) assay; settings: ephrin-Fc captured on Protein A Sepharose
T4 construct: incubated with Fc-tagged ectodomains of Eph-A3, EphB2, EphB4 and ephrin-A2, ephrin-A5, ephrin-B2 (R&D systems); purchased R&D systems
T4 sequence (O43921 25-188 limits assumed): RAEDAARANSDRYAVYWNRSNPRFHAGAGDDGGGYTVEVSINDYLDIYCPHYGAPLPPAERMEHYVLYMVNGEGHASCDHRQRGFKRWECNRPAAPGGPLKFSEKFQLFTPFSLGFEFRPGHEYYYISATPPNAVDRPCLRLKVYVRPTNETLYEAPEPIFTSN
Procedure: as §1

[5] = target: T5, ephrin-A1 (Homo sapiens, UniProt P20827); experiment: In vitro binding (Protein-A pull-down) assay; settings: ephrin-Fc captured on Protein A Sepharose
T5 sequence (P20827 19-182 limits assumed): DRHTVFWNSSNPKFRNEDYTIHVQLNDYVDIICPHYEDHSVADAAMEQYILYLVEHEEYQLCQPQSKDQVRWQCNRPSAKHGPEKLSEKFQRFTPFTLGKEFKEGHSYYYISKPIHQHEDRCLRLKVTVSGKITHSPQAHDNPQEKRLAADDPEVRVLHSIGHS

[6] = target: T6, EphA3/ephrin-A5 Fc complex (Homo sapiens, UniProt P29320+P52803); experiment: HTRF / FRET assay of EphA3/ephrin-A5/ADAM10D+C complex formation; assay type: binding; settings: unlabelled protein at increasing concentrations, 320 nM complex
T6 construct: Fc fusion proteins of the ephrin-A5 and EphA3 extracellular domains fused to the hinge and Fc region of human IgG1 were produced as described
T6 sequence (P29320 21-541 limits assumed): T1 sequence (P29320 21-541 limits assumed)
T6 sequence (P52803 21-203 limits assumed): T1 sequence (P52803 21-203 limits assumed)
Procedure: FIG. 6. Fluorescence Energy Transfer (RET) analysis monitoring the formation of EphA3/ephrin-A5/ADAM10D+C complexes. • A) The proposed screening approach for inhibitors of the complex formation is based on a Homogeneous Time Resolved Fluorescence (HTRF™) Assay using a Eu^3+ chelate labeled donor and a XL665 labeled acceptor protein. Interactions between ADAM10 and its substrate, the EphA3/ephrinA5 complex are measured using (normalized) emission at 665 nm: the interaction brings the labels into proximity and triggers fluorescence resonance energy transfer (FRET), which initiates a chemical reaction cascade to produce an amplified fluorescent signal. […]
In this regard, screening or identification of inhibitors of complex formation is based on high-throughput homogeneous time resolved fluorescence (HTRF™) technology utilising donor and acceptor fluorescence labels that are conjugated to Fc-tagged proteins. An interaction between proteins brings the labels into proximity and triggers fluorescence resonance energy transfer (FRET), which initiates a chemical reaction cascade to produce an amplified fluorescent signal. […]
The proposed drug screening approach is based on homogeneous time resolved fluorescence HTRF™ technology utilising donor and acceptor fluorescence labels that are conjugated to Fc-tagged proteins. […]

B1: ADAM10D+C: recombinant bovine Adam10 disintegrin and cysteine-rich domains (residues 455-646), Fc tag removed (protein)
chain: SGQPICGNGMVEQGEECDCGYSDQCKDECCYDANQPEGKKCKLKPGKQCSPSQGPCCTAHCAFKSKTEKCRDDSDCAKEGICNGITALCPASDPKPNFTDCNRHTQVCINGQCAGSICEKHGLEECTCASSDGKDDKELCHVCCMKKMEPSTCASTGSVQWNKYFLGRTITLQPGSPCNDFRGYCDVFMRCR
With B1 the “binding to EphA3/ephrin-A5 complex” value ([1]; EphA3-Fc plus untagged ephrin-A5) was “readily bound and formed a stable complex; also recorded: binds”, the “amount of EphA3-bound (complexed) ephrin-A5” value ([1]; single-chain ephrin-A5 lacking Fc, captured via EphA3-Fc) was “notably increased” and the “binding to EphB4/ephrin-B2 complex” value [2] was “little or no association; also recorded: does not bind”. For the same molecule, the “binding to EphA3 ectodomain” value [3] was “no interaction was seen”, the “binding to ephrin-A2” value [4] was “bound” and the “binding to ephrin-A1” value [5] was “bound”. For the same molecule, the “inhibition of the labelled ADAM10D+C - EphA3/ephrin-A5 interaction (A665/A620)” value [6] was “competitive inhibitor”.
